Reference: IntAct's records for PubMed 21532587

B1: Casein kinase I homolog HRR25 (Saccharomyces cerevisiae), P29295 (parent)
chain: MDLRVGRKFRIGRKIGSGSFGDIYHGTNLISGEEVAIKLESIRSRHPQLDYESRVYRYLSGGVGIPFIRWFGREGEYNAMVIDLLGPSLEDLFNYCHRRFSFKTVIMLALQMFCRIQYIHGRSFIHRDIKPDNFLMGVGRRGSTVHVIDFGLSKKYRDFNTHRHIPYRENKSLTGTARYASVNTHLGIEQSRRDDLESLGYVLIYFCKGSLPWQGLKATTKKQKYDRIMEKKLNVSVETLCSGLPLEFQEYMAYCKNLKFDEKPDYLFLARLFKDLSIKLEYHNDHLFDWTMLRYTKAMVEKQRDLLIEKGDLNANSNAASASNSTDNKSETFNKIKLLAMKKFPTHFHYYKNEDKHNPSPEEIKQQTILNNNAASSLPEELLNALDKGMENLRQQQPQQQVQSSQPQPQPQQLQQQPNGQRPNYYPEPLLQQQQRDSQEQQQQVPMATTRATQYPPQINSNNFNTNQASVPPQMRSNPQQPPQDKPAGQSIWL
partner: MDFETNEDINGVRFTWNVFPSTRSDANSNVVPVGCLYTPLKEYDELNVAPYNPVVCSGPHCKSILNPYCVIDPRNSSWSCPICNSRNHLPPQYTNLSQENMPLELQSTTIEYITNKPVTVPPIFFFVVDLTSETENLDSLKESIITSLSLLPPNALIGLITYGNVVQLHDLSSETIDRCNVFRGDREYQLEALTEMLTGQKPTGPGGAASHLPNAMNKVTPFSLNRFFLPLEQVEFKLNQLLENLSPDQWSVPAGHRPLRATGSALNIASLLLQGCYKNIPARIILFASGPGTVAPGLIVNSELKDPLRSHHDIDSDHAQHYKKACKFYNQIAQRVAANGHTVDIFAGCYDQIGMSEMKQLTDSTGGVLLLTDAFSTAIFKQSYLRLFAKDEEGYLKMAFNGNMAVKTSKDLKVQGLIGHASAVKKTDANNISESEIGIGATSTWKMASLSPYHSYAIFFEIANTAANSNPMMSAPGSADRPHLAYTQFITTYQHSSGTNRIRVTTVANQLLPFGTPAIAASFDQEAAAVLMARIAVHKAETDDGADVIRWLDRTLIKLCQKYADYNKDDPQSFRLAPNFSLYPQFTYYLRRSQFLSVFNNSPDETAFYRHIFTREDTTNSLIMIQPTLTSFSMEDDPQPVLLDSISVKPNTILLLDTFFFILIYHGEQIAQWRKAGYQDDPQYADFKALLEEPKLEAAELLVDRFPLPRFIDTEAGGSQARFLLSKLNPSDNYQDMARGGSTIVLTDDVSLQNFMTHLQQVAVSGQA
B2: Casein kinase I homolog HRR25 (Saccharomyces cerevisiae), P29295 (parent)
chain: B1 chain
partner: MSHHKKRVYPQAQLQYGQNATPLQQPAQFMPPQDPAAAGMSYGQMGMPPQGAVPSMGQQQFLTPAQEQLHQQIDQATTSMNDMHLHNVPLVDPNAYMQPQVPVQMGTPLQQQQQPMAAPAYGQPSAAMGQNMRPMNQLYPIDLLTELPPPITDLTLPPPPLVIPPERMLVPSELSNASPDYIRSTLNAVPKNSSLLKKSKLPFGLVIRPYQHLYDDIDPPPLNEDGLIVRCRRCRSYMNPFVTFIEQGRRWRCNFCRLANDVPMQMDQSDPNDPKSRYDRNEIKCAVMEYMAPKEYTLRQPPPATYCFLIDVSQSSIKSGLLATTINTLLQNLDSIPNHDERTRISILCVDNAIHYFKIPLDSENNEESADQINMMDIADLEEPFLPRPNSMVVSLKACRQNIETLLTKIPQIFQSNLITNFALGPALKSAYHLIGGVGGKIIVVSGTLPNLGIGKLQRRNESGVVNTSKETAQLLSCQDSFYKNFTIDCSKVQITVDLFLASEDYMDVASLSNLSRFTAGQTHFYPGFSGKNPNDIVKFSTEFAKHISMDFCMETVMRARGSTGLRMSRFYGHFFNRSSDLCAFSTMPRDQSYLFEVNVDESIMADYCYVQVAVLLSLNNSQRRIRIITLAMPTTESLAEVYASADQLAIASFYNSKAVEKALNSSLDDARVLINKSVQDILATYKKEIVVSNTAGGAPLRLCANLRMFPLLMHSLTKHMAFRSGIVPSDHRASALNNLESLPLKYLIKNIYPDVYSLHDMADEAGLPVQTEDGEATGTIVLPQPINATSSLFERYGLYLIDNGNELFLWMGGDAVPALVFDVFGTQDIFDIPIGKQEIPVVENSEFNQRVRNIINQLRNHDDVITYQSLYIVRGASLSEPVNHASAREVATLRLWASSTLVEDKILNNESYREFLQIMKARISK
B3: Protein transport protein SEC23 (Saccharomyces cerevisiae), P15303 (parent)
chain: B1 partner
partner: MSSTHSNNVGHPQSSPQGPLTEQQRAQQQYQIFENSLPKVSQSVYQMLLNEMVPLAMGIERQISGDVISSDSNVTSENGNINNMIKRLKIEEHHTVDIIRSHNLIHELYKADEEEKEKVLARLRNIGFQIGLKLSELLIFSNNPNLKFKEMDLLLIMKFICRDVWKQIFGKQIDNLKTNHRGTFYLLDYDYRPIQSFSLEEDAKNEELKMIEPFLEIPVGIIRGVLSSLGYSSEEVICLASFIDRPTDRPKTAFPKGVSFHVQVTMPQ
B4: Protein transport protein SEC23 (Saccharomyces cerevisiae), P15303 (parent)
chain: B1 partner

Variants of: B1
Details: with sec23_yeast SEC23, P15303

| effect of a mutation on the interaction | Variant |
| --- | --- |
| disrupting interaction | MDLRVGRKFRIGRKIGSGSFGDIYHGTNLISGEEVAIALESIRSRHPQLDYESRVYRYLSGGVGIPFIRWFGREGEYNAMVIDLLGPSLEDLFNYCHRRFSFKTVIMLALQMFCRIQYIHGRSFIHRDIKPDNFLMGVGRRGSTVHVIDFGLSKKYRDFNTHRHIPYRENKSLTGTARYASVNTHLGIEQSRRDDLESLGYVLIYFCKGSLPWQGLKATTKKQKYDRIMEKKLNVSVETLCSGLPLEFQEYMAYCKNLKFDEKPDYLFLARLFKDLSIKLEYHNDHLFDWTMLRYTKAMVEKQRDLLIEKGDLNANSNAASASNSTDNKSETFNKIKLLAMKKFPTHFHYYKNEDKHNPSPEEIKQQTILNNNAASSLPEELLNALDKGMENLRQQQPQQQVQSSQPQPQPQQLQQQPNGQRPNYYPEPLLQQQQRDSQEQQQQVPMATTRATQYPPQINSNNFNTNQASVPPQMRSNPQQPPQDKPAGQSIWL [K38A] |

Variants of: B2
Details: with sec24_yeast SEC24, P40482

| effect of a mutation on the interaction | Variant |
| --- | --- |
| disrupting interaction | MDLRVGRKFRIGRKIGSGSFGDIYHGTNLISGEEVAIALESIRSRHPQLDYESRVYRYLSGGVGIPFIRWFGREGEYNAMVIDLLGPSLEDLFNYCHRRFSFKTVIMLALQMFCRIQYIHGRSFIHRDIKPDNFLMGVGRRGSTVHVIDFGLSKKYRDFNTHRHIPYRENKSLTGTARYASVNTHLGIEQSRRDDLESLGYVLIYFCKGSLPWQGLKATTKKQKYDRIMEKKLNVSVETLCSGLPLEFQEYMAYCKNLKFDEKPDYLFLARLFKDLSIKLEYHNDHLFDWTMLRYTKAMVEKQRDLLIEKGDLNANSNAASASNSTDNKSETFNKIKLLAMKKFPTHFHYYKNEDKHNPSPEEIKQQTILNNNAASSLPEELLNALDKGMENLRQQQPQQQVQSSQPQPQPQQLQQQPNGQRPNYYPEPLLQQQQRDSQEQQQQVPMATTRATQYPPQINSNNFNTNQASVPPQMRSNPQQPPQDKPAGQSIWL [K38A] |

Variants of: B3
Details: with trs33_yeast TRS33, Q99394

| effect of a mutation on the interaction | Variant |
| --- | --- |
| decreasing interaction | S742D;T747E |

Variants of: B4
Details: with sar1_yeast SAR1, P20606
sar1_yeast SAR1, P20606, sequence (P20606 whole entry): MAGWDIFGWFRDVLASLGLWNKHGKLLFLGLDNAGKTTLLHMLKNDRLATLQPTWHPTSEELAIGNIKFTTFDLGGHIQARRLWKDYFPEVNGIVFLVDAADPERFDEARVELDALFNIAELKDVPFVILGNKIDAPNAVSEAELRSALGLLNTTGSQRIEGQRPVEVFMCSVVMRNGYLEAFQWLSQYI

| effect of a mutation on the interaction | Variant |
| --- | --- |
| disrupting interaction | T747E |
| disrupting interaction | S742D |
| disrupting interaction | S742D;T747E |
